{"source": "patent US7754689B2", "about": "“Finger-1 peptide analogs of the TGF-β superfamily” (Wyeth LLC, priority 2006, dated 2010)", "molecules": {"B1": {"name": "BMP-12: Bone Morphogenic Protein, member of the TGF-β superfamily; tested in solution and immobilized on Sepharose beads as affinity ligand (protein)", "chain": "TALAGTRTAQGSGGGAGRGHGRRGRSRCSRKPLHVDFKELGWDDWIIAPLDYEAYHCEGLCDFPLRSHLEPTNHAIIQTLLNSMAPDAAPASCCVPARLSPISILYIDAANNVVYKQYEDMVVEACGCR"}}, "molecular_target": "T1, BMP-3 (Homo sapiens, UniProt P12645)", "T1 construct": "a propeptide fragment copurifies along with the mature protein; made in house; host or cells: CHO cells (conditioned medium)", "T1 sequence (P12645 363-472)": "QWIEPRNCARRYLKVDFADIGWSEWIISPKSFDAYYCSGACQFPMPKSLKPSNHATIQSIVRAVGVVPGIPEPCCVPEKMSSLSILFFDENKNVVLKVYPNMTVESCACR", "test": "Affinity column chromatography, capture and elution of BMP-3", "format": "binding", "protocol": "BMP-12 was immobilized on NHS-activated Sepharose™ beads at a ratio of about 20 mg:4 mL and the resulting media combined with water or neutral saline buffer to prepare a column. CHO-conditioned media augmented with 1.2 M NaCl was loaded onto the column. In some cases, the media was preconcentrated with respect to BMP before loading. The column was washed with 15 CV (column volumes) of 1.2 M NaCl in 40 mM Na2HPO4 at pH 7.2, followed by 0.5 M arginine/0.5 M NaCl in 20 mM Tris at pH 7.5 (15 CV) and a low salt wash (50 mM ammonium acetate at pH 7, 15 CV). […] Finally, the column was eluted with 5CV of the acetic acid solution with 6M guanidine hydrochloride (GuHCl).\nThe eluate was analyzed using HPLC.\n4 mL of the resulting resin (1.6×2.0 cm) was used to prepare a column. The column was loaded with BMP-3 and eluted as in Example 1.", "data": [{"molecule": "B1", "values": [{"measurement": "capture of BMP-3 by column with immobilized ligand", "setting": "CHO-conditioned media with 1.2 M NaCl (high salt) load", "result": "effectively captured"}, {"measurement": "elution of BMP-3 from column with immobilized ligand", "setting": "washes, then gradient to 50 mM acetic acid pH 3, then 6M GuHCl", "result": "eluted with acetic acid"}]}]}
